Reference: the supplement of paper PMC9170038

Test system: MS2 coat protein
Assay: apparent KD of MS2 coat protein; designed switch direction (-1 OFF switch, 1 ON switch): -1; higher = weaker reporter binding
In short: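 Transcription of designed RNA switches on Illumina chips was done by stalled E. coli RNA polymerase. SNAP-549-labelled MS2 coat protein was then titrated in doubling steps from 0.7 or 1.5 nM to 3 µM, with steps of 0.8–1.5 h at the lowest and 10–20 min at the highest concentration. The per-design median over clusters of curve-fitted normalised fluorescence is reported as apparent KD.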

[1] = Eterna round: R95, input ligand: microRNA oligo, concentration not stated
[2] = input ligand: microRNA oligo, concentration not stated
[3] = Eterna round: R95, input ligand: FMN 200 uM
[4] = Eterna round: R95, input ligand: none

CGGUGCUGAGGAUAUACAUGAGGAUCACCCAUGUGUUCUAGCUAGCGUACUGGCAGAUGUAGAAGGCGGUACUG [JL-ex3-3.43 Brourd mod] (puzzle: Exclusion 3)
apparent KD of MS2 coat protein [1]: 17.1 nM

UUUUUAUAUGAAGGAUAUACUUAACAUGAGGAUCACCCAUGUGGUGUUGUGAGUGAGUGAGUUUAGUAGAAGGUCAAGGAUUUU [JMF's solution 35] (Eterna round: R96, puzzle: Exclusion NG 2)
apparent KD of MS2 coat protein (input ligand: FMN 200 uM): 598 nM
apparent KD of MS2 coat protein [2]: 456 nM
apparent KD of MS2 coat protein (input ligand: none): 161 nM

GCUGCGCGAGGAUAUGCGGUUCGCGCGGUGGCCGCUGGCGGACAUGAGGAUCACCCAUGUAGAAGGCGUGCGGG [Apr-15 SS2-60] (puzzle: Exclusion 2)
apparent KD of MS2 coat protein [1]: 11.7 nM

AUUGUUUAUGUAGGAUAUGCCUGGCGUGCCUUUGCAGAAGGACAUGAGGAUCACCCAUGUAUUGCGGUCUGCGUUCAGAUCGCG [salish99_ExNG1_r4_034] (Eterna round: R96, puzzle: Exclusion NG 1)
apparent KD of MS2 coat protein (input ligand: FMN 200 uM): 46.9 nM
apparent KD of MS2 coat protein [2]: 22.5 nM
apparent KD of MS2 coat protein (input ligand: none): 27.4 nM

AGUAAUUCAAGAGGAUAUCACAUGAGGAUCACCCAUGUAUAGCGCGCUACGCUAGUCCUCGUAUUUGAGAAGGUUUGAUAAAUG [JL ViennaUCT Quve mod 1] (Eterna round: R96, puzzle: Exclusion NG 2)
apparent KD of MS2 coat protein (input ligand: FMN 200 uM): 14.4 nM
apparent KD of MS2 coat protein [2]: 12.5 nM
apparent KD of MS2 coat protein (input ligand: none): 17.1 nM

CGGGCGUGAGGAUAUCCAUCUGGAUCAGACUAGAUCCUGAUGGAGAAGGCACAUGAGGAUCACCCAUGUACCCG [Eli 4x 4.50] (Eterna round: R97, puzzle: Exclusion 4)
apparent KD of MS2 coat protein (input ligand: FMN 200 uM): 22.2 nM
apparent KD of MS2 coat protein (input ligand: none): 18.6 nM

GGUCGUAUGAGUAGUCCUCAUUGAAGAGAUUGGUAAGAUACAUGAGGAUCACCCAUGUUUGAACAAGCUUUUGCUCU [JR_Sv3TOV2_Sub008] (puzzle: Sensor v3, turn-off variant 2)
apparent KD of MS2 coat protein [3]: 96 nM
apparent KD of MS2 coat protein [1]: 41.9 nM
apparent KD of MS2 coat protein [4]: 120 nM

GUAUGUGAGAGAGGAUAUCGUGUACAAAGUACACGAGAAGGCUUCACAUGAGGAUCACCCAUGUACCGAGGUGAAACACCUUGA [Omei Exc(NG)1 Bv9] (Eterna round: R96, puzzle: Exclusion NG 1)
apparent KD of MS2 coat protein (input ligand: FMN 200 uM): 1870 nM
apparent KD of MS2 coat protein [2]: 298 nM
apparent KD of MS2 coat protein (input ligand: none): 423 nM

AACAGGUCAGGAUAUACAUGAGGAUCACCCAUGUAGACUUCUAGUCUAUCGUGACUGUGUAGAAGGGACCUGAA [Exclusion 3 (MOD of #98 Marzena11)] (Eterna round: R97, puzzle: Exclusion 3)
apparent KD of MS2 coat protein (input ligand: FMN 200 uM): 146 nM
apparent KD of MS2 coat protein (input ligand: none): 40.1 nM

AAUUAUUAUUGAGGAUAUCGUAGUGAAACACUACGAGAAGGCGGUAUAAACAUGAGGAUCACCCAUGUGAGCCUGAUGCUUAUG [Ex NG1 #44] (Eterna round: R96, puzzle: Exclusion NG 1)
apparent KD of MS2 coat protein [2]: 20.6 nM

CUUUUGUGAGGAUAUUUGUAGUAAAUAAAUAAAAUUACUACUGAGAAGGCACAUGAGGAUCACCCAUGUUCCUC [salish99_ex4_r3_042] (puzzle: Exclusion 4)
apparent KD of MS2 coat protein [1]: 27.7 nM

AUUAUGUUAGGAUAUGCUUAUGGUGGAUAGUCCAAUGUGGUGCAGAAGGGACAUGAGGAUCACCCAUGUACUGA [EX4 #29] (Eterna round: R97, puzzle: Exclusion 4)
apparent KD of MS2 coat protein (input ligand: FMN 200 uM): 70.5 nM
apparent KD of MS2 coat protein (input ligand: none): 58.6 nM

CGCAAAAGGAAGGAUAUGCUAGACGAAAGUCUAGCAGAAGGUCCUACAUGAGGAUCACCCAUGUGUCCUAUGCG [Mat - Exclusion 6 - Eli Mod - D11] (Eterna round: R97, puzzle: Exclusion 6)
apparent KD of MS2 coat protein (input ligand: FMN 200 uM): 63.1 nM
apparent KD of MS2 coat protein (input ligand: none): 46.6 nM

GAUUAUGCGAGCUUUAGGGACAUGAGGAUCACCCAUGUUCGUCUUAUUAGUCUGGGUACACUAACAUACCUAAAUCU [JMF 21] (puzzle: Sensor v3, turn-off variant 1)
apparent KD of MS2 coat protein [3]: 26.9 nM
apparent KD of MS2 coat protein [1]: 43.6 nM
apparent KD of MS2 coat protein [4]: 30.4 nM

GCAGUGUGAGUUAGGAUAUGAUGAUUUUUUAUUGGUCAGAAGGAACUUGAGGAUCACCCAAGUUAGGAAUUGGU [JR_BMEx4_Sub075] (Eterna round: R97, puzzle: Brourd's mod of Exclusion 4)
apparent KD of MS2 coat protein (input ligand: FMN 200 uM): 40.3 nM
apparent KD of MS2 coat protein (input ligand: none): 33.1 nM

GAUUAUGCGAGCUUUAGGGACAUGAGGAUCACCCAUGUUCGUCUUAUUGAUCUAGAUGCACUGACAUACCUAAAUCU [JMF 77] (puzzle: Sensor v3, turn-off variant 1)
apparent KD of MS2 coat protein [3]: 15.1 nM
apparent KD of MS2 coat protein [1]: 18.7 nM
apparent KD of MS2 coat protein [4]: 17.2 nM

GGUUGUUGUUUCCGUUCUUACAUGAGGAUCACCCAUGUUUCUUGUCGUGCUCGCGUUGCUCGUCUGUCUGUCUGUUG [salish99_TOv1_r3_072] (puzzle: Sensor v3, turn-off variant 1)
apparent KD of MS2 coat protein [3]: 55.7 nM
apparent KD of MS2 coat protein [1]: 36.2 nM
apparent KD of MS2 coat protein [4]: 63 nM

CCAGCAAAUGUAAGGAUAUGCUGGUCCUUGGAUCAGCAGAAGGUACAUGAGGAUCACCCAUGUAGGUAAGCUGG [Eli bmx4 4.63] (Eterna round: R97, puzzle: Brourd's mod of Exclusion 4)
apparent KD of MS2 coat protein (input ligand: FMN 200 uM): 118 nM
apparent KD of MS2 coat protein (input ligand: none): 23.5 nM

GCGGACUUGAUCGUGAGAUCAGAGACAUGAGGAUCACCCAUGUAGGAUAUCGAUUCGUUUCGAAUCGAGAAGGGCGUGGUCCGC [JL denovo 15] (Eterna round: R96, puzzle: Exclusion NG 3)
apparent KD of MS2 coat protein (input ligand: FMN 200 uM): 83.9 nM
apparent KD of MS2 coat protein [2]: 52.2 nM
apparent KD of MS2 coat protein (input ligand: none): 70.2 nM

UGAUCUAGCGGAGGAUAUACAUGAGGAUCACCCAUGUAAAUCGCUGAACCGUAGUUCAGCAUCAUGUAGAAGGCCGCUAGAUCU [MOD2 ENG2 3.62 by JL] (Eterna round: R96, puzzle: Exclusion NG 2)
apparent KD of MS2 coat protein (input ligand: FMN 200 uM): 473 nM
apparent KD of MS2 coat protein [2]: 55.6 nM
apparent KD of MS2 coat protein (input ligand: none): 70.4 nM

CAAACUUCGCGAGGAUAUGGGAUCAUAUAGAUGCCAGAAGGCGCGACAUGAGGAUCACCCAUGUGUUUUGCCCUGUGAUUCCAG [Eternabot solution 12] (Eterna round: R96, puzzle: Exclusion NG 1)
apparent KD of MS2 coat protein (input ligand: FMN 200 uM): 22.2 nM
apparent KD of MS2 coat protein [2]: 16.6 nM
apparent KD of MS2 coat protein (input ligand: none): 21.5 nM

CGGAUGUAAGGAUAUCGUGCAAGUUUCAAAAGAGGCUUGUGCGAGAAGGUACAUGAGGAUCACCCAUGUAGGUU [Omei Ex4 B6] (Eterna round: R97, puzzle: Exclusion 4)
apparent KD of MS2 coat protein (input ligand: FMN 200 uM): 157 nM
apparent KD of MS2 coat protein (input ligand: none): 75.8 nM

ACAUGUAAUGCAGGAUAUCUGACACAUGAGGAUCACCCAUGUGACCAGAGGAAUUGCUAUGAGUCGGAGAAGGGUAUGUACAUG [Ex NG2 #54] (Eterna round: R96, puzzle: Exclusion NG 2)
apparent KD of MS2 coat protein (input ligand: FMN 200 uM): 37.7 nM
apparent KD of MS2 coat protein [2]: 20.3 nM
apparent KD of MS2 coat protein (input ligand: none): 27.1 nM

AGAUGUACCUAGGAUAUCCGUCUUAUUGGACUAGGAGAAGGAGGUACAUGAGGAUCACCCAUGUAUGACUCCUG [Veisteer] (puzzle: Exclusion 6)
apparent KD of MS2 coat protein [1]: 9.08 nM

CCGUGCACGCUGCGGUCCUACAUGAGGAUCACCCAUGUGGUCCGGUGGCGUGGGUCGCCGGACUUGGCUCGUCUUGU [salish99_S_TOV1_R5_017] (Eterna round: R97, puzzle: Sensor, turn-off variant 1)
apparent KD of MS2 coat protein (input ligand: FMN 200 uM): 35.1 nM
apparent KD of MS2 coat protein (input ligand: none): 37.6 nM

GAAGUUAGAGGAUAUACAUGAGGAUCACCCAUGUAUGAAGUUAACUUUGUAUAUAAAUGUAGAAGGCUAACUUC [-21.1, -19.6 kcal, 36% A] (Eterna round: R97, puzzle: Exclusion 3)
apparent KD of MS2 coat protein (input ligand: FMN 200 uM): 41.6 nM
apparent KD of MS2 coat protein (input ligand: none): 25.6 nM

GAUUAACAUGAGGAUCACCCAUGUGAGGAUAUGGAAUGGCUCAUUGUCUGAUUUCCUUCUAGAAGGCACAUCUU [1986#4c] (Eterna round: R97, puzzle: Exclusion 1)
apparent KD of MS2 coat protein (input ligand: FMN 200 uM): 72.2 nM
apparent KD of MS2 coat protein (input ligand: none): 63.3 nM

AGCUGUGGCCGAGGAUAUCUAAAUUCUUAAAACGAAAUAUAAUCGAACAUGAGGAUCACCCAUGUAGAGAAGGCGGUCUCAGCA [Eli eng2 - 059] (Eterna round: R96, puzzle: Exclusion NG 2)
apparent KD of MS2 coat protein [2]: 13.4 nM

CUCGUGCAGCAAAGCUGUACGAGUACAUGAGGAUCACCCAUGUAGGAUAUGGUACGCAAAGCGUGCCAGAAGGACGUGCGUUAG [Mat - Exclusion NG 3 - Mod of JL - D94] (Eterna round: R96, puzzle: Exclusion NG 3)
apparent KD of MS2 coat protein (input ligand: FMN 200 uM): 92.5 nM
apparent KD of MS2 coat protein [2]: 19.5 nM
apparent KD of MS2 coat protein (input ligand: none): 49.7 nM

AAGAAACAUGAGGAUCACCCAUGUGAGGAUAUGAAAAAGAAAAGAAAAGAAAGAAGGUUCAGAAGGCACAAAGG [salish99-ex1_r3_027] (puzzle: Exclusion 1)
apparent KD of MS2 coat protein [3]: 48.6 nM
apparent KD of MS2 coat protein [1]: 45.8 nM
apparent KD of MS2 coat protein [4]: 28.5 nM

UCGGCGCGAGGAUAUGCGGUUUGUGCUUUGGGCCCUGGCGUACAUGAGGAUCACCCAUGUAGAAGGCGUGUUGC [Apr-15 SS2-49] (puzzle: Exclusion 2)
apparent KD of MS2 coat protein [1]: 17.9 nM
